The source of these data is the Human Domainome abundance scans (Beltran et al. 2025).

± gives the uncertainty stated by the source.

First the molecules themselves.
B1: POU domain, class 4, transcription factor 2, residues 256 to 327; numbered along this chain, Q12837 (parent)
chain: RDLEAFAERFKQRRIKLGVTQADVGSALANLKIPGVGSLSQSTICRFESLTLSHNNMIALKPILQAWLEEAE

In this series the parent is B1. The experiment in a line: abundance fitness (aPCA) (normalised: wild type 0, dead -1); higher = more abundant; growth selection in yeast, the domain comes from the species named. As to conditions: Homo sapiens.
Take RDLEAFAERFSQRRIKLGVTQADVGSALANLKIPGVGSLSQSTICRFESLTLSHNNMIALKPILQAWLEEAE: the abundance fitness was -0.443 ± 0.08.

Consider RDLEAFAERFWQRRIKLGVTQADVGSALANLKIPGVGSLSQSTICRFESLTLSHNNMIALKPILQAWLEEAE, for which the abundance fitness is -0.701 ± 0.2.

On to RDLEAFAERFQQRRIKLGVTQADVGSALANLKIPGVGSLSQSTICRFESLTLSHNNMIALKPILQAWLEEAE, for which the abundance fitness is -0.34 ± 0.13.

With RDLEAFAERFTQRRIKLGVTQADVGSALANLKIPGVGSLSQSTICRFESLTLSHNNMIALKPILQAWLEEAE, the abundance fitness is -0.194 ± 0.1.

As for RDLEAFAERFRQRRIKLGVTQADVGSALANLKIPGVGSLSQSTICRFESLTLSHNNMIALKPILQAWLEEAE, the abundance fitness is -0.106 ± 0.056.

As to RDLEAFAERFYQRRIKLGVTQADVGSALANLKIPGVGSLSQSTICRFESLTLSHNNMIALKPILQAWLEEAE, the abundance fitness was -0.781 ± 0.32.

For RDLEAFAERFKQRCIKLGVTQADVGSALANLKIPGVGSLSQSTICRFESLTLSHNNMIALKPILQAWLEEAE, the abundance fitness was -0.854 ± 0.21.

For RDLEAFAERFKQRGIKLGVTQADVGSALANLKIPGVGSLSQSTICRFESLTLSHNNMIALKPILQAWLEEAE, the abundance fitness was -1.07 ± 0.21.

Turning to RDLEAFAERFKQRKIKLGVTQADVGSALANLKIPGVGSLSQSTICRFESLTLSHNNMIALKPILQAWLEEAE, the abundance fitness is -0.632 ± 0.42.

Consider RDLEAFAERFKQRAIKLGVTQADVGSALANLKIPGVGSLSQSTICRFESLTLSHNNMIALKPILQAWLEEAE, for which the abundance fitness was -0.906 ± 0.42.

In the case of RDLEAFAERFKQRMIKLGVTQADVGSALANLKIPGVGSLSQSTICRFESLTLSHNNMIALKPILQAWLEEAE, the abundance fitness is -0.725 ± 0.14.

Take RDLEAFAERFKQRTIKLGVTQADVGSALANLKIPGVGSLSQSTICRFESLTLSHNNMIALKPILQAWLEEAE: the abundance fitness is -0.698 ± 0.1.

As for RDLEAFAERFKQRQIKLGVTQADVGSALANLKIPGVGSLSQSTICRFESLTLSHNNMIALKPILQAWLEEAE, the abundance fitness is -0.819 ± 0.18.

For the variant RDLEAFAERFKQRPIKLGVTQADVGSALANLKIPGVGSLSQSTICRFESLTLSHNNMIALKPILQAWLEEAE, the abundance fitness was -0.985 ± 0.078.

On to RDLEAFAERFKQRYIKLGVTQADVGSALANLKIPGVGSLSQSTICRFESLTLSHNNMIALKPILQAWLEEAE, for which the abundance fitness was -0.594 ± 0.32.

RDLEAFAERFKQRLIKLGVTQADVGSALANLKIPGVGSLSQSTICRFESLTLSHNNMIALKPILQAWLEEAE: the abundance fitness is -0.847 ± 0.095.

On to RDLEAFAERFKQRIIKLGVTQADVGSALANLKIPGVGSLSQSTICRFESLTLSHNNMIALKPILQAWLEEAE, for which the abundance fitness is -0.601 ± 0.31.

As for RDLEAFAERFKQRVIKLGVTQADVGSALANLKIPGVGSLSQSTICRFESLTLSHNNMIALKPILQAWLEEAE, the abundance fitness was -0.998 ± 0.27.

Take RDLEAFAERFKQRSIKLGVTQADVGSALANLKIPGVGSLSQSTICRFESLTLSHNNMIALKPILQAWLEEAE: the abundance fitness was -0.904 ± 0.1.

In the case of RDLEAFAERFKQRHIKLGVTQADVGSALANLKIPGVGSLSQSTICRFESLTLSHNNMIALKPILQAWLEEAE, the abundance fitness is -0.859 ± 0.21.

For RDLEAFAERFKPRRIKLGVTQADVGSALANLKIPGVGSLSQSTICRFESLTLSHNNMIALKPILQAWLEEAE, the abundance fitness was -1.22 ± 0.32.

RDLEAFAERFKVRRIKLGVTQADVGSALANLKIPGVGSLSQSTICRFESLTLSHNNMIALKPILQAWLEEAE: the abundance fitness is -0.232 ± 0.091.

Turning to RDLEAFAERFKIRRIKLGVTQADVGSALANLKIPGVGSLSQSTICRFESLTLSHNNMIALKPILQAWLEEAE, the abundance fitness was -0.063 ± 0.13.

Regarding RDLEAFAERFKDRRIKLGVTQADVGSALANLKIPGVGSLSQSTICRFESLTLSHNNMIALKPILQAWLEEAE, the abundance fitness was -0.148 ± 0.16.

Consider RDLEAFAERFKFRRIKLGVTQADVGSALANLKIPGVGSLSQSTICRFESLTLSHNNMIALKPILQAWLEEAE, for which the abundance fitness was -0.298 ± 0.21.

As for RDLEAFAERFKARRIKLGVTQADVGSALANLKIPGVGSLSQSTICRFESLTLSHNNMIALKPILQAWLEEAE, the abundance fitness turned out to be 0.045 ± 0.056.

In the case of RDLEAFAERFKYRRIKLGVTQADVGSALANLKIPGVGSLSQSTICRFESLTLSHNNMIALKPILQAWLEEAE, the abundance fitness was -0.463 ± 0.23.

With RDLEAFAERFKCRRIKLGVTQADVGSALANLKIPGVGSLSQSTICRFESLTLSHNNMIALKPILQAWLEEAE, the abundance fitness was -0.865 ± 0.43.

Turning to RDLEAFAERFKWRRIKLGVTQADVGSALANLKIPGVGSLSQSTICRFESLTLSHNNMIALKPILQAWLEEAE, the abundance fitness is -0.269 ± 0.094.

Regarding RDLEAFAERFKERRIKLGVTQADVGSALANLKIPGVGSLSQSTICRFESLTLSHNNMIALKPILQAWLEEAE, the abundance fitness is -0.016 ± 0.1.

Regarding RDLEAFAERFKSRRIKLGVTQADVGSALANLKIPGVGSLSQSTICRFESLTLSHNNMIALKPILQAWLEEAE, the abundance fitness is -0.186 ± 0.065.

Regarding RDLEAFAERFKHRRIKLGVTQADVGSALANLKIPGVGSLSQSTICRFESLTLSHNNMIALKPILQAWLEEAE, the abundance fitness was found to be 0.011 ± 0.16.

RDLEAFAERFKMRRIKLGVTQADVGSALANLKIPGVGSLSQSTICRFESLTLSHNNMIALKPILQAWLEEAE: the abundance fitness is -0.194 ± 0.1.

As for RDLEAFAERFKQRRIALGVTQADVGSALANLKIPGVGSLSQSTICRFESLTLSHNNMIALKPILQAWLEEAE, the abundance fitness was 0.001 ± 0.055.

RDLEAFAERFKQRRIMLGVTQADVGSALANLKIPGVGSLSQSTICRFESLTLSHNNMIALKPILQAWLEEAE: the abundance fitness was 0.11 ± 0.12.

For RDLEAFAERFKQRRIELGVTQADVGSALANLKIPGVGSLSQSTICRFESLTLSHNNMIALKPILQAWLEEAE, the abundance fitness was 0.036 ± 0.12.

As to RDLEAFAERFKQRRIDLGVTQADVGSALANLKIPGVGSLSQSTICRFESLTLSHNNMIALKPILQAWLEEAE, the abundance fitness was -0.392 ± 0.16.
